Data from patent US20220348632A1 (Novartis, published 2022).

T1: mouse Rae-1ε over-expressed on CT26.WT cells (mouse, UniProt Q9CZQ6 29-225)
T1 construct: whole, on cells; also called mouse RAE-1 epsilon; Rae-1E
T1 sequence (looked up): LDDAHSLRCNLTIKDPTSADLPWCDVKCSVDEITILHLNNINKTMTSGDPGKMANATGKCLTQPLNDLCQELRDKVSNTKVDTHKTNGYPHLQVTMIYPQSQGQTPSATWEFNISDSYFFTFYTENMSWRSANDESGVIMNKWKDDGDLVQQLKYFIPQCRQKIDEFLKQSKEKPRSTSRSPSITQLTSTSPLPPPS

T2: mouse Rae-1α over-expressed on CT26.WT cells (mouse, UniProt O08602 29-229)
T2 construct: whole, on cells; also called mouse RAE-1alpha; Rae-1a
T2 sequence (looked up): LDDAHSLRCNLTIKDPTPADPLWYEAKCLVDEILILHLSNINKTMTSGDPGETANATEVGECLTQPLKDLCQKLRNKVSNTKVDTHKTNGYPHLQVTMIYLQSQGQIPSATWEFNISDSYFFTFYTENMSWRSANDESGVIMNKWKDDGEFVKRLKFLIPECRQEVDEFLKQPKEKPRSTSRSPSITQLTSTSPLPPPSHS

B1: MM3, mNKG2D (aa94-232)-RS(G3S)2-mNKG2D (aa94-232)-(G4S)4-mFc2 (Fc fusion)
chain: FQPVLCNKEVPVSSREGYCGPCPNNWICHRNNCYQFFNEEKTWNQSQASCLSQNSSLLKIYSKEEQDFLKLVKSYHWMGLVQIPANGSWQWEDGSSLSYNQLTLVEIPKGSCAVYGSSFKAYTEDCANLNTYICMKRAVRSGGGSGGGSFQPVLCNKEVPVSSREGYCGPCPNNWICHRNNCYQFFNEEKTWNQSQASCLSQNSSLLKIYSKEEQDFLKLVKSYHWMGLVQIPANGSWQWEDGSSLSYNQLTLVEIPKGSCAVYGSSFKAYTEDCANLNTYICMKRAVGGGGSGGGGSGGGGSGGGGSISAMVRSPRGPTIKPCPPCKCPAPNLLGGPSVFIFPPKIKDVLMISLSPIVTCVVVDVSEDDPDVQISWFVNNVEVHTAQTQTHREDYNSTLRVVSALPIQHQDWMSGKEFKCKVNNKDLPAPIERTISKPKGSVRAPQVYVLPPPEEEMTKKQVTLTCMVTDFMPEDIYVEWTNNGKTELNYKNTEPVLDSDGSYFMYSKLRVEKKNWVERNSYSCSVVHEGLHNHHTTKSFSRTPGK
notes: also called N-terminal, 20 aa linker
B2: MM7, mFc2-(G4S)4-mNKG2D (aa94-232)-RS(G3S)2-mNKG2D (aa94-232) (Fc fusion)
chain: ISAMVRSPRGPTIKPCPPCKCPAPNLLGGPSVFIFPPKIKDVLMISLSPIVTCVVVDVSEDDPDVQISWFVNNVEVHTAQTQTHREDYNSTLRVVSALPIQHQDWMSGKEFKCKVNNKDLPAPIERTISKPKGSVRAPQVYVLPPPEEEMTKKQVTLTCMVTDFMPEDIYVEWTNNGKTELNYKNTEPVLDSDGSYFMYSKLRVEKKNWVERNSYSCSVVHEGLHNHHTTKSFSRTPGKGGGGSGGGGSGGGGSGGGGSFQPVLCNKEVPVSSREGYCGPCPNNWICHRNNCYQFFNEEKTWNQSQASCLSQNSSLLKIYSKEEQDFLKLVKSYHWMGLVQIPANGSWQWEDGSSLSYNQLTLVEIPKGSCAVYGSSFKAYTEDCANLNTYICMKRAVRSGGGSGGGSFQPVLCNKEVPVSSREGYCGPCPNNWICHRNNCYQFFNEEKTWNQSQASCLSQNSSLLKIYSKEEQDFLKLVKSYHWMGLVQIPANGSWQWEDGSSLSYNQLTLVEIPKGSCAVYGSSFKAYTEDCANLNTYICMKRAV
notes: also called C-terminal variant with a linker length of 20 aa
B3: MM5, mFc2-mNKG2D (aa94-232)-RS(G3S)2-mNKG2D (aa94-232) (Fc fusion)
chain: ISAMVRSPRGPTIKPCPPCKCPAPNLLGGPSVFIFPPKIKDVLMISLSPIVTCVVVDVSEDDPDVQISWFVNNVEVHTAQTQTHREDYNSTLRVVSALPIQHQDWMSGKEFKCKVNNKDLPAPIERTISKPKGSVRAPQVYVLPPPEEEMTKKQVTLTCMVTDFMPEDIYVEWTNNGKTELNYKNTEPVLDSDGSYFMYSKLRVEKKNWVERNSYSCSVVHEGLHNHHTTKSFSRTPGKFQPVLCNKEVPVSSREGYCGPCPNNWICHRNNCYQFFNEEKTWNQSQASCLSQNSSLLKIYSKEEQDFLKLVKSYHWMGLVQIPANGSWQWEDGSSLSYNQLTLVEIPKGSCAVYGSSFKAYTEDCANLNTYICMKRAVRSGGGSGGGSFQPVLCNKEVPVSSREGYCGPCPNNWICHRNNCYQFFNEEKTWNQSQASCLSQNSSLLKIYSKEEQDFLKLVKSYHWMGLVQIPANGSWQWEDGSSLSYNQLTLVEIPKGSCAVYGSSFKAYTEDCANLNTYICMKRAV
notes: also called C-terminal, no linker
B4: MM6, mFc2-(G4S)2-mNKG2D (aa94-232)-RS(G3S)2-mNKG2D (aa94-232) (Fc fusion)
chain: ISAMVRSPRGPTIKPCPPCKCPAPNLLGGPSVFIFPPKIKDVLMISLSPIVTCVVVDVSEDDPDVQISWFVNNVEVHTAQTQTHREDYNSTLRVVSALPIQHQDWMSGKEFKCKVNNKDLPAPIERTISKPKGSVRAPQVYVLPPPEEEMTKKQVTLTCMVTDFMPEDIYVEWTNNGKTELNYKNTEPVLDSDGSYFMYSKLRVEKKNWVERNSYSCSVVHEGLHNHHTTKSFSRTPGKGGGGSGGGGSFQPVLCNKEVPVSSREGYCGPCPNNWICHRNNCYQFFNEEKTWNQSQASCLSQNSSLLKIYSKEEQDFLKLVKSYHWMGLVQIPANGSWQWEDGSSLSYNQLTLVEIPKGSCAVYGSSFKAYTEDCANLNTYICMKRAVRSGGGSGGGSFQPVLCNKEVPVSSREGYCGPCPNNWICHRNNCYQFFNEEKTWNQSQASCLSQNSSLLKIYSKEEQDFLKLVKSYHWMGLVQIPANGSWQWEDGSSLSYNQLTLVEIPKGSCAVYGSSFKAYTEDCANLNTYICMKRAV
notes: also called C-terminal, 10 aa linker
B5: MM1, mNKG2D (aa94-232)-RS(G3S)2-mNKG2D (aa94-232)-mFc2 (Fc fusion)
chain: FQPVLCNKEVPVSSREGYCGPCPNNWICHRNNCYQFFNEEKTWNQSQASCLSQNSSLLKIYSKEEQDFLKLVKSYHWMGLVQIPANGSWQWEDGSSLSYNQLTLVEIPKGSCAVYGSSFKAYTEDCANLNTYICMKRAVRSGGGSGGGSFQPVLCNKEVPVSSREGYCGPCPNNWICHRNNCYQFFNEEKTWNQSQASCLSQNSSLLKIYSKEEQDFLKLVKSYHWMGLVQIPANGSWQWEDGSSLSYNQLTLVEIPKGSCAVYGSSFKAYTEDCANLNTYICMKRAVISAMVRSPRGPTIKPCPPCKCPAPNLLGGPSVFIFPPKIKDVLMISLSPIVTCVVVDVSEDDPDVQISWFVNNVEVHTAQTQTHREDYNSTLRVVSALPIQHQDWMSGKEFKCKVNNKDLPAPIERTISKPKGSVRAPQVYVLPPPEEEMTKKQVTLTCMVTDFMPEDIYVEWTNNGKTELNYKNTEPVLDSDGSYFMYSKLRVEKKNWVERNSYSCSVVHEGLHNHHTTKSFSRTPGK
notes: also called mouse NKG2D-Fc surrogate construct, N-terminal, no linker
B6: MM2, mNKG2D (aa94-232)-RS(G3S)2-mNKG2D (aa94-232)-(G4S)2-mFc2 (Fc fusion)
chain: FQPVLCNKEVPVSSREGYCGPCPNNWICHRNNCYQFFNEEKTWNQSQASCLSQNSSLLKIYSKEEQDFLKLVKSYHWMGLVQIPANGSWQWEDGSSLSYNQLTLVEIPKGSCAVYGSSFKAYTEDCANLNTYICMKRAVRSGGGSGGGSFQPVLCNKEVPVSSREGYCGPCPNNWICHRNNCYQFFNEEKTWNQSQASCLSQNSSLLKIYSKEEQDFLKLVKSYHWMGLVQIPANGSWQWEDGSSLSYNQLTLVEIPKGSCAVYGSSFKAYTEDCANLNTYICMKRAVGGGGSGGGGSISAMVRSPRGPTIKPCPPCKCPAPNLLGGPSVFIFPPKIKDVLMISLSPIVTCVVVDVSEDDPDVQISWFVNNVEVHTAQTQTHREDYNSTLRVVSALPIQHQDWMSGKEFKCKVNNKDLPAPIERTISKPKGSVRAPQVYVLPPPEEEMTKKQVTLTCMVTDFMPEDIYVEWTNNGKTELNYKNTEPVLDSDGSYFMYSKLRVEKKNWVERNSYSCSVVHEGLHNHHTTKSFSRTPGK
notes: also called N-terminal, 10 aa linker
B7: MM8, mFc2-(G4S)6-mNKG2D (aa94-232)-RS(G3S)2-mNKG2D (aa94-232) (Fc fusion)
chain: ISAMVRSPRGPTIKPCPPCKCPAPNLLGGPSVFIFPPKIKDVLMISLSPIVTCVVVDVSEDDPDVQISWFVNNVEVHTAQTQTHREDYNSTLRVVSALPIQHQDWMSGKEFKCKVNNKDLPAPIERTISKPKGSVRAPQVYVLPPPEEEMTKKQVTLTCMVTDFMPEDIYVEWTNNGKTELNYKNTEPVLDSDGSYFMYSKLRVEKKNWVERNSYSCSVVHEGLHNHHTTKSFSRTPGKGGGGSGGGGSGGGGSGGGGSGGGGSGGGGSFQPVLCNKEVPVSSREGYCGPCPNNWICHRNNCYQFFNEEKTWNQSQASCLSQNSSLLKIYSKEEQDFLKLVKSYHWMGLVQIPANGSWQWEDGSSLSYNQLTLVEIPKGSCAVYGSSFKAYTEDCANLNTYICMKRAVRSGGGSGGGSFQPVLCNKEVPVSSREGYCGPCPNNWICHRNNCYQFFNEEKTWNQSQASCLSQNSSLLKIYSKEEQDFLKLVKSYHWMGLVQIPANGSWQWEDGSSLSYNQLTLVEIPKGSCAVYGSSFKAYTEDCANLNTYICMKRAV
notes: also called C-terminal variant with a linker length of 30 aa
B8: MM4, mNKG2D (aa94-232)-RS(G3S)2-mNKG2D (aa94-232)-(G4S)6-mFc2 (Fc fusion)
chain: FQPVLCNKEVPVSSREGYCGPCPNNWICHRNNCYQFFNEEKTWNQSQASCLSQNSSLLKIYSKEEQDFLKLVKSYHWMGLVQIPANGSWQWEDGSSLSYNQLTLVEIPKGSCAVYGSSFKAYTEDCANLNTYICMKRAVRSGGGSGGGSFQPVLCNKEVPVSSREGYCGPCPNNWICHRNNCYQFFNEEKTWNQSQASCLSQNSSLLKIYSKEEQDFLKLVKSYHWMGLVQIPANGSWQWEDGSSLSYNQLTLVEIPKGSCAVYGSSFKAYTEDCANLNTYICMKRAVGGGGSGGGGSGGGGSGGGGSGGGGSGGGGSISAMVRSPRGPTIKPCPPCKCPAPNLLGGPSVFIFPPKIKDVLMISLSPIVTCVVVDVSEDDPDVQISWFVNNVEVHTAQTQTHREDYNSTLRVVSALPIQHQDWMSGKEFKCKVNNKDLPAPIERTISKPKGSVRAPQVYVLPPPEEEMTKKQVTLTCMVTDFMPEDIYVEWTNNGKTELNYKNTEPVLDSDGSYFMYSKLRVEKKNWVERNSYSCSVVHEGLHNHHTTKSFSRTPGK
notes: also called N-terminal, 30 aa linker

molecular target: T1, mouse Rae-1ε over-expressed on CT26.WT …; test: flow cytometry titration on CT26.WT cells over-expressing mouse Rae-1ε; R-PE anti-mouse Fc detection, mean R-PE fluorescence
Protocol: (§1) A […] cell sorting (FACS) based binding assay against mouse NKG2D-ligands expressed at the cell surface was performed to characterize the binding of the dimeric mouse NKG2D-Fc variants fused either to N-terminus or to C-terminus of the Fc region with no peptide linker or with different peptide linker lengths (10, 20 or 30 amino acids).
(§2) Half maximal effective concentration (EC50) in nM was determined on two different engineered stable CT26.WT cell lines, over-expressing at their surface the recombinant ligands mouse Rae-1α and mouse Rae-1E. The cells were incubated with the different concentrations of protein in DPBS supplemented with 5% FCS and 0.04% NaN₃ (FACS buffer). […] For each sample, the mean of the resulting fluorescence of alive gated cells was extracted using the Cell Quest Pro software (BD Biosciences).

EC50 [nM]	Binder
1.99	B1
1.5	B2
3.02	B3
0.668	B4
2.56	B5
1.87	B6
0.624	B7
1.65	B8

molecular target: T2, mouse Rae-1α over-expressed on CT26.WT …; test: flow cytometry titration on CT26.WT cells over-expressing mouse Rae-1α; R-PE anti-mouse Fc detection, mean R-PE fluorescence
Protocol: as §1, §2

EC50 [nM]	Binder
0.495	B1
13	B2
0.738	B3
1.15	B4
1.05	B5
1.27	B6
15.6	B7
0.894	B8
